US20030129688A1 (published 2003)
Positions count from the first letter of the chain named. In names and notes the source's numbering stands. Like-named read-outs stand apart in the source and are kept apart here. Ends that are not written are not given here.

Columns and labels:
[1] = target: T1, ErbB-4 receptor-Ig fusion (human, UniProt Q15303 26-651; Q15303 26-640); assay: phage ELISA, competition with soluble ErbB-4-Ig; against wild-type HRG-β1 177-244 on phage
[2] = target: T2, ErbB-3 receptor-Ig fusion (human, UniProt P21860 20-643; P21860 20-636); assay: phage ELISA, competition with soluble ErbB-3-Ig; against wild-type HRG-β1 177-244 on phage
[3] = target: T2, ErbB-3 receptor-Ig fusion; assay: phage ELISA, competition with soluble ErbB-3-Ig; reference
[4] = target: T1, ErbB-4 receptor-Ig fusion; assay: phage ELISA, competition with soluble ErbB-4-Ig
[5] = target: T2, ErbB-3 receptor-Ig fusion; assay: phage ELISA, competition with soluble ErbB-3-Ig
[6] = target: T1, ErbB-4 receptor-Ig fusion; assay: phage ELISA, competition with soluble ErbB-4-Ig; reference
[7] = target: ErbB-2/3 receptor-Ig fusion (human, UniProt P04626 23-652; P04626 23-645; P21860 20-643; P04626 23-645); assay: phage ELISA, competition with soluble ErbB-2/3-Ig
Description: (§1) Microtiter plates (Nunc Maxisorp™ 96-well plates, Inter Med, Denmark) for phage ELISA were prepared as follows. The wells were precoated overnight with 0.5 μg of rabbit anti-human IgG (Fc gamma fragment-specific) antibodies (Jackson Immunoresearch, West Grove, Pa.) in 100 μL 50 mM NaCO₃ (pH 9.6). The wells were blocked for 30 minutes (min) with 200 μL PBS containing 0.1% bovine serum albumin (BSA) and rinsed with wash buffer (PBS containing 0.05% Tween 20™). The wells were then coated with 0.1 μg ErbB-2/3-Ig in binding buffer (PBS, 0.1% BSA, 0.05% Tween 20™) for 1 h, and washed again.
(§2) Following incubation for 2 h at room temperature, plates were washed extensively and treated with a 1:900 dilution of anti-M13 horseradish peroxidase conjugate (Pharmacia, Piscataway, N.J.) for 20 min. The amount of phage binding was determined by assaying horseradish peroxidase activity using o-phenylenediamine dihydrochloride) substrate solution (Sigma Chemical Company, St. Louis, Mo.).

[8] = target: T2, ErbB-3 receptor-Ig fusion; assay: phage ELISA, competition with soluble ErbB-3-Ig; against HRG8
Description: as §1, §2

[9] = target: T1, ErbB-4 receptor-Ig fusion; assay: phage ELISA, competition with soluble ErbB-4-Ig; against HRG8
[10] = target: ErbB-2/3 heterodimers on MCF7 breast cancer carcinoma cells (UniProt P04626); assay: cell-based or functional assay
[11] = target: ErbB-2/3 receptor-Ig fusion (human) (UniProt P04626); assay: 125I-HRG displacement, ErbB-2/3-Ig on plate
[12] = target: ErbB-2/3 receptor-Ig fusion (human) (UniProt P04626); assay: phage ELISA, competition with soluble ErbB-2/3-Ig
[13] = target: ErbB-4 receptor-Ig fusion (human) (UniProt Q15303); assay: phage ELISA, competition with soluble ErbB-4-Ig
[14] = target: ErbB-3 receptor-Ig fusion (human) (UniProt P21860); assay: phage ELISA, competition with soluble ErbB-3-Ig
[15] = target: T2, ErbB-3 receptor-Ig fusion; assay: phage ELISA, competition with soluble ErbB-3-Ig; remark: listed apart in the source
Description: as §1, §2

[16] = target: ErbB-4 receptor-Ig fusion (human) (UniProt Q15303); assay: 125I-HRG-β1 177-244 displacement, ErbB-4-Ig on plate
[17] = target: ErbB-3 receptor-Ig fusion (human) (UniProt P21860); assay: 125I-HRG-β1 177-244 displacement, ErbB-3-Ig on plate

T1 sequence (Q15303 other isoform, or with tags, fused parts or gaps): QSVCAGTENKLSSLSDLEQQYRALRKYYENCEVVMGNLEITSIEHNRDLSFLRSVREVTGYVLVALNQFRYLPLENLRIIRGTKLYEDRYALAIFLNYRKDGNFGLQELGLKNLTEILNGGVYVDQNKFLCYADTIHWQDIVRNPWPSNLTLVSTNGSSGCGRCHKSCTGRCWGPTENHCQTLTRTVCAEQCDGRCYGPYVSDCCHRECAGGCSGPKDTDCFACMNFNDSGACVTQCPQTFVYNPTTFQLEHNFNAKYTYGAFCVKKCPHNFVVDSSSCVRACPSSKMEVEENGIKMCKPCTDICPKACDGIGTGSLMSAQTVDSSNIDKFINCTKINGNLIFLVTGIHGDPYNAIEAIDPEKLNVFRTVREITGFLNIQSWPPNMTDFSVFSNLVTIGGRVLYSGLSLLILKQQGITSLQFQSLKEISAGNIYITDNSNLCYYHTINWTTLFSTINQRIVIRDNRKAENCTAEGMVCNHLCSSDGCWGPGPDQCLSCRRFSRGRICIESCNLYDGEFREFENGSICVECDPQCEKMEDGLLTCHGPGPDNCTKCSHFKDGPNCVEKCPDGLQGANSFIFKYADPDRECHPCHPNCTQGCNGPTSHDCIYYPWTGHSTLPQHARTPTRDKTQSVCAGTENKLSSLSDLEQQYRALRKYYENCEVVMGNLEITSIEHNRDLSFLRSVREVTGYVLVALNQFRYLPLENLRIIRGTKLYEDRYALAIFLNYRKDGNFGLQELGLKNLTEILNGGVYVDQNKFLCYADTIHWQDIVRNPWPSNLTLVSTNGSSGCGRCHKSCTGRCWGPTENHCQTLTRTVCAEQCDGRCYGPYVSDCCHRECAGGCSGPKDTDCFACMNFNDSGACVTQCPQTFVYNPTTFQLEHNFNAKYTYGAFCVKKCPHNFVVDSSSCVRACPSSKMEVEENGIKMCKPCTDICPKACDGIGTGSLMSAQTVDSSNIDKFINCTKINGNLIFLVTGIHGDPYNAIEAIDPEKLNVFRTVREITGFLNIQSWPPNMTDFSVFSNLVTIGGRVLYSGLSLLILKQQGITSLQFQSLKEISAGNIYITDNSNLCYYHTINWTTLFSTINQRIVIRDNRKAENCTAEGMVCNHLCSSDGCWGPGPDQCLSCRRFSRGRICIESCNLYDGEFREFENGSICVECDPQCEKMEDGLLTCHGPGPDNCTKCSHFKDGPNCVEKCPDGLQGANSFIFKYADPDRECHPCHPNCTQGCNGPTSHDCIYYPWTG
Sequence of ErbB-4 receptor-Ig fusion (human) (Q15303 other isoform, or with tags, fused parts or gaps): as above

“HRG-β1 177-244 H178L with 228-231 replaced by Met, displayed on phage (Example 4 clone) (from UniProt Q02297 177-227; Q02297 232-244) (ligand)” was tested. Which EC50 Mut/WT [1] did it give?
The EC50 Mut/WT was 1.7.

What about the EC50 Mut/WT [2] of the same molecule?
Its EC50 Mut/WT is 6.4.

With “HRG-β1 177-244 H178W with 228-231 replaced by Met, displayed on phage (Example 4 clone) (from UniProt Q02297 177-227; Q02297 232-244) (ligand)” as the molecule, how does the EC50 Mut/WT [1] read?
The EC50 Mut/WT was 1.7.

What about the EC50 Mut/WT [2] of the same molecule?
Its EC50 Mut/WT is 1.2.

How did the EC50 Mut/WT [1] turn out when “HRG-β1 177-244 L179V displayed on phage (Example 4 clone) (from UniProt Q02297 177-244) (ligand)” was run?
Its EC50 Mut/WT is 1.6.

What about the EC50 Mut/WT [2] of the same molecule?
Its EC50 Mut/WT is 1.5.

“HRG-β1 177-244 H178L displayed on phage (Example 4 clone) (from UniProt Q02297 177-244) (ligand)” was tested. Which EC50 Mut/WT [1] did it give?
The EC50 Mut/WT was 1.2.

And the EC50 Mut/WT [2]?
Its EC50 Mut/WT is 1.4.

Which EC50 Mut/WT [1] does the source give for “HRG-β1 177-244 H178D L179V displayed on phage (Example 4 clone) (from UniProt Q02297 177-244) (ligand)” here?
The EC50 Mut/WT was 2.

What about the EC50 Mut/WT [2] of the same molecule?
Its EC50 Mut/WT is 2.2.

How did the EC50 Mut/WT [1] turn out when “HRG-β1 177-244 H178E displayed on phage (Example 4 clone) (from UniProt Q02297 177-244) (ligand)” was run?
Its EC50 Mut/WT is 1.7.

What about the EC50 Mut/WT [2] of the same molecule?
Its EC50 Mut/WT is 9.5.

How did the EC50 Mut/WT [1] turn out when “HRG-β1 177-244 R207P displayed on phage (Example 4 clone) (from UniProt Q02297 177-244) (ligand)” was run?
Its EC50 Mut/WT is 1.3.

What about the EC50 Mut/WT [2] of the same molecule?
The EC50 Mut/WT was 6.1.

B1: HRG8 (HRG-β1 177-228 fused via (GGGS)3 to pIII 323, displayed on phage) (ligand, human, not shown: large carriers)
chain: SHLVKCAEKEKTFCVNGGECFMVKDLSNPSRYLCKCPNEFTGDRCQNYVMASGGGSGGGSGGGS
notes: monovalent phage display; also called pHRG8-g3; wild-type HRG-β1 EGF-phage
How did the “EC50 (wt)/EC50 (mut)” value [3] turn out when B1 was run?
The value was 1 ratio.

And the EC50 [4]?
Its EC50 is 163 nM.

What about the EC50 [5] of the same molecule?
The EC50 was 135 nM.

What about the “EC50 (wt)/EC50 (mut)” value [6] of the same molecule?
Its value is 1 ratio.

And the EC50 [7]?
Its EC50 is 11 nM.

B2: HRG-β1 EGF variant D4 displayed on phage (ligand, human, not shown: large carriers)
chain: B1 chain with F21Y, M22R, D25T
notes: monovalent phage display, pHRG8-g3 background
For B2, which “EC50 (wt)/EC50 (mut)” value [8] is on record?
The value was 2.9 ratio.

What about the “EC50 (wt)/EC50 (mut)” value [9] of the same molecule?
The value was 5 ratio.

B3: HRG-β1 EGF variant A3 displayed on phage (ligand, human, not shown: large carriers)
chain: B1 chain with S1W, H2E, K5P
notes: as for B2
For B3, which “EC50 (wt)/EC50 (mut)” value [8] is on record?
Its value is 0.96 ratio.

What about the “EC50 (wt)/EC50 (mut)” value [9] of the same molecule?
The value was 1.1 ratio.

B4: HRG-β1 EGF variant I2 displayed on phage (ligand, human, not shown: large carriers)
chain: B1 chain with N47H, M50I
notes: as for B2
What does the source list for B4?
EC50 (wt)/EC50 (mut) [8]: 20 ratio; EC50 (wt)/EC50 (mut) [9]: 10 ratio

B5: HRG-β1 EGF variant B3 displayed on phage (ligand, human, not shown: large carriers)
chain: B1 chain with A7G, K9E, E10R, K11E, T12G
notes: as for B2
B5 was tested. Which “EC50 (wt)/EC50 (mut)” value [8] did it give?
The value was 4.7 ratio.

And the “EC50 (wt)/EC50 (mut)” value [9]?
The value was 1.7 ratio.

B6: HRG5 (HRG-β1 147-244 fused to pIII 247, displayed on phage) (ligand, human, UniProt Q02297-6 147-244, looked up, not shown: large carriers)
chain: YVSSESPIRISVSTEGANTSSSTSTSTTGTSHLVKCAEKEKTFCVNGGECFMVKDLSNPSRYLCKCPNEFTGDRCQNYVMASFYKHLGIEFMEAEELY
notes: monovalent phage display; also called pHRG5-g3
B6 was tested. Which EC50 [7] did it give?
Its EC50 is 4.7 nM.

B7: HRG6 (HRG-β1 177-227 fused to pIII 247, displayed on phage) (ligand, human, UniProt Q02297-6 177-227, looked up, not shown: large carriers)
chain: SHLVKCAEKEKTFCVNGGECFMVKDLSNPSRYLCKCPNEFTGDRCQNYVMA
modifications: not fully specified (C-terminus); ends and bridges not checked
notes: monovalent phage display; Ala227 restored from pHRG1-g3; also called pHRG6-g3
How did the EC50 [7] turn out when B7 was run?
The EC50 was 40 nM.

B8: soluble wild-type HRG-β1 EGF (HRG8) (ligand, human, UniProt Q02297-6 177-228, looked up)
chain: SHLVKCAEKEKTFCVNGGECFMVKDLSNPSRYLCKCPNEFTGDRCQNYVMAS
modifications: ends and bridges not checked; cysteine pairing not given here
What does the source list for B8?
KIRA EC50 (ErbB-2 tyrosine phosphorylation on MCF7 cells) [10]: 0.212 nM; EC50 [11]: 0.033 nM

B9: HRG7 (HRG-β1 177-228 fused to pIII 247, displayed on phage) (ligand, human, UniProt Q02297-6 177-228, looked up, not shown: large carriers)
chain: B8 chain
modifications: not fully specified (C-terminus); ends and bridges not checked
Which EC50 [12] does the source give for B9 here?
The EC50 was 42 nM.

B10: HRG11 (HRG-β1 177-230 fused via GGGSGGG to pIII 247, displayed on phage) (ligand, human, not shown: large carriers)
chain: SHLVKCAEKEKTFCVNGGECFMVKDLSNPSRYLCKCPNEFTGDRCQNYVMASFYGGGSGGG
notes: monovalent phage display; also called pHRG11-g3
For B10, which EC50 [7] is on record?
The EC50 was 19 nM.

B11: HRG73 combination variant displayed on phage (ligand, human, not shown: large carriers)
chain: SHLVKCGEEREGFCVNGGECYRVKTYGYLMCKCPNEFTGDRCQHYVIASGGGSGGGSGGGS
notes: monovalent phage display; also called B3+D4+E2+I2
How did the “EC50 (wt)/EC50 (mut)” value [8] turn out when B11 was run?
Its value is 56 ratio.

What about the “EC50 (wt)/EC50 (mut)” value [9] of the same molecule?
Its value is 16 ratio.

B12: HRG-β1 EGF variant G1 displayed on phage (ligand, not shown: large carriers; small tags and cut ends)
chain: SHLVKCAEKEKTFCVNGGECFMVKDLSNPSRYLCRCSLEFTGDRCQNYVMAS-{(GGGS)3-M13 pIII C‑terminal fragment from residue 323}
modifications: ends and bridges not checked
notes: as for B2
Which results are given for B12?
EC50 (wt)/EC50 (mut) [8]: 1.2 ratio; EC50 (wt)/EC50 (mut) [9]: 1.6 ratio

B13: HRG-β1 EGF variant E2 displayed on phage (ligand, human, not shown: large carriers)
chain: SHLVKCAEKEKTFCVNGGECFMVKDYGYLMCKCPNEFTGDRCQNYVMASGGGSGGGSGGGS
notes: monovalent phage display
For B13, which “EC50 (wt)/EC50 (mut)” value [8] is on record?
The value was 28 ratio.

And the “EC50 (wt)/EC50 (mut)” value [9]?
The value was 7.6 ratio.

B14: HRG4 (HRG-β1 147-227 fused to pIII 247, displayed on phage) (ligand, human, UniProt Q02297-6 147-227, looked up, not shown: large carriers)
chain: YVSSESPIRISVSTEGANTSSSTSTSTTGTSHLVKCAEKEKTFCVNGGECFMVKDLSNPSRYLCKCPNEFTGDRCQNYVMA
notes: range 147-227; monovalent phage display; also called pHRG4-g3
How did the EC50 [7] turn out when B14 was run?
The EC50 was 38 nM.

B15: HRG2 (HRG-β1 177-244 fused to pIII 247, displayed on phage) (ligand, human, UniProt Q02297-6 177-244, looked up, not shown: large carriers)
chain: SHLVKCAEKEKTFCVNGGECFMVKDLSNPSRYLCKCPNEFTGDRCQNYVMASFYKHLGIEFMEAEELY
notes: monovalent phage display; also called pHRG2-g3
How did the EC50 [13] turn out when B15 was run?
The EC50 was 19 nM.

What about the EC50 [14] of the same molecule?
Its EC50 is 13 nM.

What about the EC50 [7] of the same molecule?
The EC50 was 6 nM.

B16: HRG-β1 177-244 F216A displayed on phage (ligand, not shown: large carriers; small tags and cut ends)
chain: B15 chain with F40A
notes: from pHRG2-g3; monovalent phage display
Which EC50 [15] does the source give for B16 here?
Its EC50 is 500 nM.

B17: recombinantly produced HRG-β1 177-244 (ligand, human, UniProt Q02297-6 177-244, looked up)
chain: B15 chain
Which results are given for B17?
EC50 [16]: 14.8 nM; EC50 [17]: 9 nM
